Assay results published in PMC8536012, “Selection of Specific Nanobodies against Lupine Allergen Lup an 1 for Immunoassay Development” (Foods, 2021).

These binders were tested against T1, Lup an 1 (Lupinus angustifolius (by the …, UniProt F5B8W3)) (assay: ELISA; crude lupine extract (50 μg/mL) coated overnight at 4 °C; Nbs serially diluted in PBS, 1 h at room temperature; detected by mouse anti-His IgG and HRP goat anti-mouse IgG; apparent affinity = concentration at half of the maximum signal). Settings: one partner purified.
T1 construct: Lup an 1, lupin β-conglutin, a 7S seed storage globulin of the vicilin-like proteins; found by LC-MS/MS of the ~55 kDa band immunocaptured from crude lupine extract; UniProt F5B8W3.1; size distribution printed as 55 to 61 kDa; Never purified: it stood in a crude lupine protein extract in every experiment; Seen as a band of ~55 kDa; also called lupin β-conglutin; lupine allergen Lup an 1; source: …
T1 sequence (F5B8W3 31-637): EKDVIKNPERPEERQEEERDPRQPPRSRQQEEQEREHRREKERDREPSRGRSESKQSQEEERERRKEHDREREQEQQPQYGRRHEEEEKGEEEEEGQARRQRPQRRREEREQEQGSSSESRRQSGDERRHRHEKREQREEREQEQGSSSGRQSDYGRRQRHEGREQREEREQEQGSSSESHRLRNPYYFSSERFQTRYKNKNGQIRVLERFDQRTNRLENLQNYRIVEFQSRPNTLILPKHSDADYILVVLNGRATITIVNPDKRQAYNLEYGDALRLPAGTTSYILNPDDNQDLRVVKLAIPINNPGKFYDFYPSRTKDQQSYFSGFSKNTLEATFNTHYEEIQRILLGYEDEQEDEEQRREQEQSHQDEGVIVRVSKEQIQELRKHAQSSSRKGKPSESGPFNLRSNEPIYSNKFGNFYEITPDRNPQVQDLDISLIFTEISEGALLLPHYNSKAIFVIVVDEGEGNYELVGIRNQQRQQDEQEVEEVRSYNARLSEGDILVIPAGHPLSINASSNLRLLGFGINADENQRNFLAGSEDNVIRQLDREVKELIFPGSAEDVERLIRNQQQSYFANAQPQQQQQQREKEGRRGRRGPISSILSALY

EC50 [nM] | Binder
9 | Nb B91 (His- and HA-tagged) (VHH, also called Nb91; source: E. coli WK6 (pMECS), periplasmic, purified (IMAC, SEC)) VHH: QVQLQESGGGLVQAGDSLRLSCASSGRTFSSYGVGWFRQAPGKEREFVAAISWNGGSASYADSVKGRFTVSRDNAKNTVYLQMNSLQPEDTADYYCAAKVEALYGTDYFRDYDYWGQGTQVTVSS
14 | Nb B187 (His- and HA-tagged) (VHH, From an immune alpaca library raised against crude lupine protein extract; also called Nb187; B187HA; source: E. coli WK6 (pMECS), periplasmic, purified (IMAC, SEC)) VHH: QVQLQESGGGLVQAGGSLRLSCAASGRTFSGARMGWFRQAPGKEREFVAAIRWITGSTYYTDSVKGRFTISRDIAKNTQYLQMNSLKPEDTARYYCAAGEYYGGSYSDTEKYDYWGQGTQVTVSS
13 | Nb B167 (His- and HA-tagged) (VHH, also called Nb167; source: E. coli WK6 (pMECS), periplasmic, purified (IMAC, SEC)) VHH: QVQLQESGGGLVQAGGSLRLSCAASRRTSRNYDMTWFRQFPGTEREFVAFISWGGSRIYYADSVKGRFTISRDNAKDTVYLQMNSLKPEDTAVYYCAADPRLVRGRYESDYWGQGTQVTVSS
45 | Nb B163 (His- and HA-tagged) (VHH, also called Nb163; source: E. coli WK6 (pMECS), periplasmic, purified (IMAC, SEC)) VHH: QVQLQESGGGLAQAGGSLTLSCAASGRTFSIPTMGWFRQAPGKEREFVAAIGRTTAYTGSVKGRFTISRDSAKNTVSLQMNSLNIEDTGVYYCASSQSPWSSPPLTENMYAYWGQGTQVTVSS
31 | Nb B165 (His- and HA-tagged) (VHH, also called Nb165; source: E. coli WK6 (pMECS), periplasmic, purified (IMAC, SEC)) VHH: QVQLQESGGGLVQAGGSLRLSCAASTRTFSSDAMGWFRQAPGKEREFVAAISISTYYADSVKGRFTISRDNAKNTMYLQMNRLKPEDTAVYYCAVKPFYGGIRYPNEYPYWGQGTQVTVSS
680 | Nb B157 (His- and HA-tagged) (VHH, also called Nb157; source: E. coli WK6 (pMECS), periplasmic, purified (IMAC, SEC)) VHH: QVQLQESGGGLVQAGGSLRLSCEASGRTNTKYAWGWFRQAPGKEREFVASINWSGTLINYADSVKGRFTISRDDAKNTVYLEMSSLRPEDTAVYSCAVRYYTGTYYYTTSPDNYKHWAQGTQVTVSS

Second part, the binder before the results:

Binder | EC50 [nM]
Nb B66 (His- and HA-tagged) (VHH, also called Nb66; source: E. coli WK6 (pMECS), periplasmic, purified (IMAC, SEC)) VHH: QVQLQESGGGLVQAGGSLRLSCAASGRTFSSYGIGWFRQAPGKEREFVASISWSGGSTYYADSVKGRFTISRDNAKNTVYLQMNSLKPEDTAVYYCAAVIEAIDFVPVEYDYWGQGTQVTVSS | 180
Nb B42 (His- and HA-tagged) (VHH, also called Nb42; source: E. coli WK6 (pMECS), periplasmic, purified (IMAC, SEC)) VHH: QVQLQESGGGLVQAGGSLRLSCAASGRTFSSYAMGWFRQAPGKEREFVAAISWSGGSTYYADSVKGRFTISRDNAKNTVYLQMNSLKPEDTAVYYCAVDQWILEVNAAFQADYWGQGTQVTVSS | 24
Nb B40 (His- and HA-tagged) (VHH, Detecting nanobody of the final sandwich ELISA; also called Nb40; B40HA; source: E. coli WK6 (pMECS), periplasmic, purified (IMAC, SEC)) VHH: QVQLQESGGGLVQAGESLRLSCATTEHANQMYAVGWFRQAPGKEREFVASINWSGTRTEHAESVKGRFTISKINPHDTVYLQMNSLKPEDTAVYACAARYYSGTYTKTDNSNDYDYWGQGTQVTVSS | 8
Nb B50 (His- and HA-tagged) (VHH, also called Nb50; source: E. coli WK6 (pMECS), periplasmic, purified (IMAC, SEC)) VHH: QVQLQESGGGLVQAEGSLRLSCTVSGRTFSRDAMGWFRRPPGKEREFVAAISWNGASTSYADSVKGRFTVSRDNAKNTSLLQMNSLKPEDTAVYYCATYWSSAIPPLAAATSATYWGQGTQVTVSS | 16
Nb B83 (His- and HA-tagged) (VHH, also called Nb83; B83HA; source: E. coli WK6 (pMECS), periplasmic, purified (IMAC, SEC)) VHH: QVQLQESGGGLVQPGGSLRLSCAASGSIFSRNDMGWYRQAVGEARILVATITSGGVTTYADSVKGRFTISRDNAKNTVYLQMNSLKPEDTAVYYCNTLTNRRNAYWGQGTQVTVSS | 1
Nb B69 (His- and HA-tagged) (VHH, also called Nb69; source: E. coli WK6 (pMECS), periplasmic, purified (IMAC, SEC)) VHH: QVQLQESGGGLVQPGGSLRLSCVSSERTFSPYTMAWFRQAPGKERDFVADIRWGDGTTRYADSVKGRFTISRDNAKNTVFLQTNSLTPEDTAVYYCAHKTWYPRSFQAASYDFWGQGTQVTVSS | 325
